No end group written: not given here. *: point of attachment. 5FAM = O=C1OC2(c3ccc(O)cc3Oc3cc(O)ccc32)c2ccc(C(=O)*)cc21; TQ2 = quencher; TQ3 = quencher
Biological target: T1, MMP14 in the MDA-MB-231-derived extracellular vesicles (Homo sapiens, UniProt P50281)
T1 construct: in terms of intact MMP14 with a molecular weight of 70 kDa
Test: Digital detection through MMP14 activity of MDA-MB-231-derived extracellular vesicles captured on Tim4-immobilized magnetic particles
Assay type: biochemical
Experimental: Magnetic particles included in PS Capture (trademark) Exosome Flow Cytometry Kit (manufactured by FUJIFILM Corporation) were used as magnetic particles. In this kit, binding of an extracellular vesicle to a Tim4-immobilized magnetic particle is utilized.
800 μL of Exosome Capture Beads were aliquoted in a 1.5 mL microtube, vortexed for 5 seconds, spun down in a benchtop centrifuge, and then placed on a magnetic stand. After still standing for 1 minute, the supernatant was removed by pipetting. 1 mL of x1 WB (+Enhancer) prepared from x10 Washing Buffer and x100 Exosome Binding Enhancer included in the kit was added to the residue, the mixture was vortexed for 5 seconds, spun down in a benchtop centrifuge, and then placed on a magnetic stand. After still standing for 1 minute, the supernatant was removed by pipetting. This operation was repeated three times.
800 μL of the buffer (4) was added to the magnetic particle pellets, and the mixture was vortexed for 30 seconds to provide a homogeneous magnetic particle suspension. 60 μL of the suspension was aliquoted into each of twelve 1.5 mL microtubes.
The concentration of the solution is 4 μg/mL. […] Further, the concentration of the x1/5 solution was set to be the highest concentration, and 10-fold dilution was performed in four stages. Thus, 10-fold dilution samples in a total of five stages were obtained.
The magnetic particle suspension that had been aliquoted in each amount of 60 μL in the section “(Preparation of Particles)” was vortexed for 5 seconds, spun down in a benchtop centrifuge, and then placed on a magnetic stand. After still standing for 1 minute, the supernatant was removed by pipetting.
After that, the above-mentioned mixed solution was spun down in a benchtop centrifuge, then placed on a magnetic stand, and left to stand still for 1 minute. After that, the supernatant was removed by pipetting, 300 μL of the buffer (4) was added to the residue, and the mixture was vortexed for 5 seconds. The mixture was spun down in a benchtop centrifuge, then placed on a magnetic stand, and left to stand still for 1 minute. The same operation was further repeated twice.
For detection of MMP14 activity, 1 mM Custom #1 and Custom #2 were diluted with the buffer (4) to prepare MMP14 detection solutions containing 5 μM Custom #1 and Custom #2, respectively.
The supernatant of the mixed solution of the magnetic particles and the extracellular vesicles subjected to the washing was removed by pipetting, and 60 μL of each of the MMP14 detection solutions was added to each of the magnetic particle pellets to prepare a reaction solution for wells.
Magnosphere (trademark) MS300/Streptavidin (manufactured by JSR Corporation) (hereinafter abbreviated as “MS300S”) was used as magnetic particles. The magnetic particles were modified with Tim4 through use of Biotin-labeled Exosome Capture included in MagCapture (trademark) Exosome Isolation Kit PS Ver. 2 (manufactured by FUJIFILM Corporation) (hereinafter abbreviated as “PS2”) to prepare Tim4-immobilized magnetic particles.
10 μL of Biotin-labeled Exosome Capture was added to the suspension, and the mixture was vortexed for 5 seconds so that the contents were mixed. The mixture was subjected to a reaction for 10 minutes while the contents were mixed by inversion at room temperature with a rotator. After that, the resultant was spun down in a benchtop centrifuge, and then placed on a magnetic stand. After still standing for 1 minute, the supernatant was removed by pipetting. 500 μL of x1 I/WB (±Enhancer) was added to the residue, and the mixture was vortexed for 5 seconds, spun down in a benchtop centrifuge, and then placed on a magnetic stand. After still standing for 1 minute, the supernatant was removed by pipetting. This operation was further repeated twice. […]

[1] = Example 49, PS Capture Tim4 particles, 30° C., 4 h
[2] = Example 50, MS300S Tim4 particles, 30° C., 4 h
[3] = Table 52, particles modified with Tim4, MB231 concentration x1/5, 4 hr
[4] = Table 52, particles modified with Tim4, MB231 concentration x1/50, 4 hr
[5] = Table 52, particles modified with Tim4, MB231 concentration x1/500, 4 hr
[6] = Table 52, particles modified with Tim4, MB231 concentration x1/5,000, 4 hr
[7] = Table 52, particles modified with Tim4, MB231 concentration x1/50,000, 4 hr
[8] = Table 53, BG subtracted, MB231 concentration x1/5, 4 hr
[9] = Table 53, BG subtracted, MB231 concentration x1/50, 4 hr
[10] = Table 53, BG subtracted, MB231 concentration x1/500, 4 hr
[11] = Table 53, BG subtracted, MB231 concentration x1/5,000, 4 hr
[12] = Table 53, BG subtracted, MB231 concentration x1/50,000, 4 hr
[13] = Table 54, particles immobilized with Tim4, MB231 concentration x1/5, 4 hr
[14] = Table 54, particles immobilized with Tim4, MB231 concentration x1/25, 4 hr
[15] = Table 54, particles immobilized with Tim4, MB231 concentration x1/125, 4 hr
[16] = Table 54, particles immobilized with Tim4, MB231 concentration x1/625, 4 hr
[17] = Table 54, particles immobilized with Tim4, MB231 concentration x1/3,125, 4 hr
[18] = Table 54, particles immobilized with Tim4, MB231 concentration x1/15,625, 4 hr
[19] = Table 54, particles immobilized with Tim4, MB231 concentration x1, 4 hr
[20] = Table 55, BG subtracted, MB231 concentration x1/5, 4 hr
[21] = Table 55, BG subtracted, MB231 concentration x1/25, 4 hr
[22] = Table 55, BG subtracted, MB231 concentration x1/125, 4 hr
[23] = Table 55, BG subtracted, MB231 concentration x1/625, 4 hr
[24] = Table 55, BG subtracted, MB231 concentration x1/3,125, 4 hr
[25] = Table 55, BG subtracted, MB231 concentration x1/15,625, 4 hr
[26] = Table 55, BG subtracted, MB231 concentration x1, 4 hr
[27] = Table 56, Particle MS300C, MB231 Present, 24 hours at 23° C.
[28] = Table 56, Particle Simoa, MB231 Present, 24 hours at 23° C.
[29] = Table 53, BG subtracted, MB231 concentration x1, 4 hr

Substance: [5-FAM]GGPLGLAGGK(TQ2)[OH] (5FAM-GGPLGLAGGK(TQ2)-OH) [Custom #2]
- number of the extracellular vesicles [1]: 1.18×10^5 /μg of protein
- number of the extracellular vesicles (Example 50, 6×10^5 particles, 2 μg of protein): 1.77×10^5
- expected value Δλ per particle (value obtained by subtracting BG) at a concentration of x1 [2]: 0.2953
- number of the extracellular vesicles [2]: 8.86×10^4 /μg of protein
- Particle Expected value λ [3]: 0.2744
- Particle Number of positives [3]: 557
- Particle Positive ratio [3]: 0.24
- Particle Expected value λ [4]: 0.09639
- Particle Number of positives [4]: 246
- Particle Positive ratio [4]: 0.09189
- Particle Expected value λ [5]: 0.03784
- Particle Number of positives [5]: 181
- Particle Positive ratio [5]: 0.03714
- Particle Expected value λ [6]: 0.01211
- Particle Number of positives [6]: 37
- Particle Positive ratio [6]: 0.01204
- Particle Expected value λ [7]: 0.00551
- Particle Number of positives [7]: 17
- Particle Positive ratio [7]: 0.00549
- Particle Expected value Δλ [8]: 0.2716
- Particle Δ Number of positives [8]: 552
- Particle Δ Positive ratio [8]: 0.2378
- Particle Expected value Δλ [9]: 0.09434
- Particle Δ Number of positives [9]: 241
- Particle Δ Positive ratio [9]: 0.09003
- Particle Expected value Δλ [10]: 0.03678
- Particle Δ Number of positives [10]: 176
- Particle Δ Positive ratio [10]: 0.03611
- Particle Expected value Δλ [11]: 0.01047
- Particle Δ Number of positives [11]: 32
- Particle Δ Positive ratio [11]: 0.01041
- Particle Expected value Δλ [12]: 0.00388
- Particle Δ Number of positives [12]: 12
- Particle Δ Positive ratio [12]: 0.00388
- Particle Expected value λ [13]: 0.1892
- Particle Number of positives [13]: 1,235
- Particle Positive ratio [13]: 0.1723
- Particle Expected value λ [14]: 0.1044
- Particle Number of positives [14]: 643
- Particle Positive ratio [14]: 0.09911
- Particle Expected value λ [15]: 0.06097
- Particle Number of positives [15]: 385
- Particle Positive ratio [15]: 0.05915
- Particle Expected value λ [16]: 0.03309
- Particle Number of positives [16]: 225
- Particle Positive ratio [16]: 0.03255
- Particle Expected value λ [17]: 0.02229
- Particle Number of positives [17]: 166
- Particle Positive ratio [17]: 0.02204
- Particle Expected value λ [18]: 0.01639
- Particle Number of positives [18]: 88
- Particle Positive ratio [18]: 0.01625
- Particle Expected value λ [19]: 0.2912
- Particle Number of positives [19]: 1,744
- Particle Positive ratio [19]: 0.2526
- Particle Expected value Δλ [20]: 0.1853
- Particle Δ Number of positives [20]: 1,212
- Particle Δ Positive ratio [20]: 0.1691
- Particle Expected value Δλ [21]: 0.1004
- Particle Δ Number of positives [21]: 620
- Particle Δ Positive ratio [21]: 0.09556
- Particle Expected value Δλ [22]: 0.05722
- Particle Δ Number of positives [22]: 362
- Particle Δ Positive ratio [22]: 0.05562
- Particle Expected value Δλ [23]: 0.02966
- Particle Δ Number of positives [23]: 202
- Particle Δ Positive ratio [23]: 0.02922
- Particle Expected value Δλ [24]: 0.01917
- Particle Δ Number of positives [24]: 143
- Particle Δ Positive ratio [24]: 0.01899
- Particle Expected value Δλ [25]: 0.01208
- Particle Δ Number of positives [25]: 65
- Particle Δ Positive ratio [25]: 0.01201
- Particle Expected value Δλ [26]: 0.2868
- Particle Δ Number of positives [26]: 1,721
- Particle Δ Positive ratio [26]: 0.2493
- Particle Expected value λ [27]: 0.2899
- Particle Positive ratio [27]: 0.2517
- Particle Expected value λ [28]: 0.3046
- Particle Positive ratio [28]: 0.2626

Substance: [5-FAM]GRIGFLRTAK(TQ2)[OH] (5FAM-GRIGFLRTAK(TQ2)-OH) [Custom #1]
- number of the extracellular vesicles (Example 49, 6×10^5 particles, 3 μg of protein at x1): 1.04×10^6
- expected value Δλ per particle (value obtained by subtracting BG) at a concentration of x1 [1]: 1.7373
- number of the extracellular vesicles [1]: 3.47×10^5 /μg of protein
- Particle Expected value λ [3]: 0.831
- Particle Number of positives [3]: 1,240
- Particle Positive ratio [3]: 0.5644
- Particle Expected value λ [4]: 0.06966
- Particle Number of positives [4]: 165
- Particle Positive ratio [4]: 0.06729
- Particle Expected value λ [5]: 0.03312
- Particle Number of positives [5]: 89
- Particle Positive ratio [5]: 0.03258
- Particle Expected value λ [6]: 0.01344
- Particle Number of positives [6]: 41
- Particle Positive ratio [6]: 0.01335
- Particle Expected value λ [7]: 0.01169
- Particle Number of positives [7]: 30
- Particle Positive ratio [7]: 0.01162
- Particle Expected value Δλ [9]: 0.05749
- Particle Δ Number of positives [9]: 137
- Particle Δ Positive ratio [9]: 0.05587
- Particle Expected value Δλ [10]: 0.02258
- Particle Δ Number of positives [10]: 61
- Particle Δ Positive ratio [10]: 0.02233
- Particle Expected value Δλ [11]: 0.00424
- Particle Δ Number of positives [11]: 13
- Particle Δ Positive ratio [11]: 0.00423
- Particle Expected value Δλ [12]: 0.00078
- Particle Δ Number of positives [12]: 2
- Particle Δ Positive ratio [12]: 0.00077
- Particle Expected value Δλ [29]: 0.8022
- Particle Δ Number of positives [29]: 1,212
- Particle Δ Positive ratio [29]: 0.5517

Substance: TAMRA-GGPLGLAGGK(TQ3) ({TAMRA}-GGPLGLAGGK(TQ3)) [Custom #2T]
- Particle Expected value λ [27]: 0.2937
- Particle Positive ratio [27]: 0.2545
- Particle Expected value λ [28]: 0.07748
- Particle Positive ratio [28]: 0.07456

Source: US20250290928A1, “METHOD, KIT AND DEVICE FOR DETECTING EXTRACELLULAR VESICLES” (priority 2022, published 2025)
